Measurements published in patent US20150306241.

Biological target: T1, PEG2000-peptide-PTX
T1 chain: GPLGIAGQ

B1: Human active MMP2 protein (MW 66,000 Da) (protein)
chain: YNFFPRKPKWDKNQITYRIIGYTPDLDPETVDDAFARAFQVWSDVTPLRFSRIHDGEADIMINFGRWEHGDGYPFDGKDGLLAHAFAPGTGVGGDSHFDDDELWTLGEGQVVRVKYGNADGEYCKFPFLFNGKEYNSCTDTGRSDGFLWCSTTYNFEKDGKYGFCPHEALFTMGGNAEGQPCKFPFRFQGTSYDSCTTEGRTDGYRWCGTTEDYDRDKKYGFCPETAMSTVGGNSEGAPCVFPFTFLGNKYESCTSAGRSDGKMWCATTANYDDDRKWGFCPDQGYSLFLVAAHEFGHAMGLEHSQDPGALMAPIYTYTKNFRLSQDDIKGIQELYGASPDIDLGTGPTPTLGPVTPEICKQDIVFDGIAQIRGEIFFFKDRFIWRTVTPRDKPMGPLLVATFWPELPEKIDAVYEAPQEEKAVFFAGNEYWIYSASTLERGYPKPLTSLGLPPDVQRVDAAFNWSKNKKTYIFAGDKFWRYNEVKKKMDPGFPKLIADAWNAIPDNLDAVVDLQGGGHSYFFKGAYYLKLENQSLKSVKFGSIKSDWLGC
  enzymatic digestion followed by TLC (5 ng/µL human MMP2): the MMP2 completely cleaved the peptide linker resulting in two digestion fragments (IAGQ-PTX and PEG-GPLG)
